{"source": "patent US20230287068A1", "about": "“KERATIN BD-6, PREPARATION METHOD THEREFOR AND PHARMACEUTICAL COMPOSITION AND USE THEREOF” (INSTITUTE OF MATERIAL MEDICA, CHINESE ACADEMY OF MEDICAL …, priority 2019, published 2023)", "key": {"[1]": {"tested_on": "lipopolysaccharide (LPS) induced fever model in rats", "assay": "Lipopolysaccharide (LPS) induced fever model in SD rats", "format": "in vivo", "conditions": "for Body temperature 2 hours after modeling / Body temperature 4 hours after modeling / Body temperature 6 hours after modeling / Body temperature 8 hours after modeling: LPS 20 µg/kg i.p., SD rats", "description": "• Animals: 230-260 grams of male SD rats; • Drugs: lipopolysaccharide (LPS, SIGMAL-2880), aspirin (SIGMAA2093), protein BD-6; • Instruments: electronic balance (SARTORIUS BP121S type), electronic clinical thermometer (CITIZEN CT-513W type). • Experiment grouping: • Normal control group; • Model group: lipopolysaccharide fever model; • Positive control group: Aspirin 300 mg/kg group; • Protein BD-6, 10 mg/kg group, 50 mg/kg group.\nMethod: the method of intraperitoneal injection of Lipopolysaccharide to replicate rat fever model.\nPreparation of experimental animals: After the experimental animals adapt to the experimental environment (temperature 22° C.±2° C., relative humidity 50%±2%) for 1 day. Pre-adaptation to measure rectal temperature at 8:00 and 15:00, rats were fasted and water was taken freely 12 h before experiment, and let the animal to empty its feces before measuring the rectal temperature. Apply petroleum jelly to the electronic thermometer probe before each temperature measurement. Insert the rat rectum 2 cm (can be marked at 2 cm to ensure that the depth of each insertion is consistent), and record the body temperature after the reading is stable.\nIntraperitoneal injection of lipopolysaccharide to replicate rat fever model: The body temperature of the rats was measured before modeling. Qualified rats with a body temperature of 36.2-37.3° C. were selected and randomly divided into groups with 8 rats in each group. After oral administration of aspirin and different doses of protein BD-6, lipopolysaccharide (20 µg/kg, 2 ml/kg) was injected intraperitoneally immediately, and the normal control group was injected intraperitoneally with an equal volume of normal saline. The body temperatures of the rats were monitored after 2 hours for a total of 8 hours.\nAccording to the body temperature measured at each time point on the day of the experiment, calculate the mean, standard deviation and standard error of the body temperature of each group of rats. The data of each group was compared with TTEST, and P<0.05 was considered as a significant difference."}, "[2]": {"tested_on": "PTZ-induced epilepsy in mice", "assay": "Pentylenetetrazole (PTZ) induced epilepsy in mice", "format": "in vivo, ICR mice", "conditions": "for Cases of deaths / Grade IV seizure rate / mortality rate / Cases of Grade IV / Grade III seizure incubation period / Grade IV seizure incubation period: PTZ 65 mg/kg i.p.; for Cases of deaths / Grade IV seizure rate / mortality rate / Cases of Grade IV: 10 mice; for Cases of Grade IV: 15 min observation; for Grade III seizure incubation period / Grade IV seizure incubation period: mean±SEM; for Grade IV seizure incubation period: maximum 900 seconds", "description": "• Animals: male ICR mice; • Medicines: Pentylenetetrazol (PTZ), Retigabine, Protein BD-6. • Experiment grouping: • Model group; • Retigabine 60 mg/kg group; • Protein BD-6, 50 mg/kg group, 200 mg/kg group;\nThe drug was administered once in the afternoon the day before modeling, On the day of modeling, PTZ-65 mg/kg (modeling agent) was injected intraperitoneal 1 hour after the test drug was administered intragastrically, and the positive drug can be administered once half an hour before modeling. Continue to observe for 15 minutes after injection of PTZ.\nObservation index: ①Seizure situation: the time of seizures from Grade III to Grade VI; ②Death situation\nSeizure grade: Refer to Racine grading standard: Grade 0: No response; Grade I: manifested as twitching of facial muscles or the corners of the mouth; Grade II: can nod; Grade III: twitching of one limb; Grade IV: rigidity or body twitching; Grade V: generalized epilepsy (generalized tonic seizures).\nCount the cases of seizures and deaths in each group of mice in the experiment; Grade III and IV incubation period. The incubation period of mice that have not attacked to Grade IV is recorded as the maximum of 900 seconds. Chi-square test was used for statistics of the number of cases. Calculate the mean and standard error of the incubation period. Use TTEST to compare the model group with other groups, and P<0.05 is considered as a significant difference."}, "[3]": {"tested_on": "mice cough induced by ammonia water", "assay": "Antitussive test, cough induced by ammonia water in mice", "format": "in vivo, ICR mice", "conditions": "for Incubation period (cough): 10% ammonia water 10 seconds; for Incubation period (cough) / Number of coughs: X±SEM; for Number of coughs: within 2 minutes", "description": "• Animals: male ICR mice; • Drugs and reagents: dextromethorphan hydrobromide, ammonia water, 0.2% CMC-Na, protein BD-6; • Apparatus: Compressed nebulizer (403T type), balance (XS105DU type). • Experiment grouping: • Solvent control group; • Dextromethorphan 15 mg/kg group; • Protein BD-6, 20 mg/kg group, 50 mg/kg group.\nDextromethorphan and different doses of protein BD-6 (administration volume 10 ml/kg) were given orally in groups, and the solvent control group was given the same volume of distilled water. One hour later, mice were put into a sealed box and atomized 10% ammonia water for 10 seconds, and then observed and recorded the incubation period of cough in mice and the number of coughs in 2 minutes.\nRecord the time point of oral administration, the time point of atomization experiment, the incubation period of mice cough and the number of coughs within 2 minutes, respectively. The incubation period of cough refers to the number of seconds from the start of the atomization of ammonia to the occurrence of cough. The performance of coughing in mice is based on contraction of their abdominal muscles (breast contraction) and opening their mouths at the same time. Calculate the mean and standard error of each group of data, and use TTEST to compare the model group with other groups, and P<0.05 is considered as a significant difference."}}}
{"molecule": "BD-6: recombinant keratin with the amino acid sequence SEQ ID NO:1, expressed in E. coli, about 45 kD; protein of Example 4 (protein, listed as Bos taurus) MTTTIRHFSSGSIKGSSGLAGGSSRSCRVSGSLGGGSCRLGSAGGLGSGLGGSSYSSCYSFGSGGSYGSGGYVSGGYGGGFGGVDGLLVGGEKATMQNLNDRLASYLDKVRALEEANTELELKIRDWYQKQAPGPAPDYSSYFKTIEDLRNKIHTATVDNANLLLQIDNARLAADDFRTKFETEQALRVSVEADINGLRRVLDELTLARADLEMQIENLKEELAYLRKNHEEEMKALRGQVGGEINVEMDAAPGVDLSRILNEMRDQYEKMAEKNRKDAEDWFFSKTEELNREVATNSELVQSGKSEISELRRTLQALEIELQSQLSMKASLEGSLAETENRYCMQLSQIQGLIGSVEEQLAQLRCEMEQQNQEYKILLDVKTRLEQEIATYRRLLEGEDAHLTQYKTKEPVTTRQVRTIVEEVQDGRVISSREQVHQTSH", "values": [{"measurement": "Body temperature 2 hours after modeling", "setting": "[1]; BD-6 10 mg/kg oral", "value": "37.1±0.2", "unit": "°C"}, {"measurement": "Body temperature 4 hours after modeling", "setting": "[1]; BD-6 10 mg/kg oral", "value": "37.4±0.2", "unit": "°C"}, {"measurement": "Body temperature 6 hours after modeling", "setting": "[1]; BD-6 10 mg/kg oral", "value": "37.3±0.2", "unit": "°C"}, {"measurement": "Body temperature 8 hours after modeling", "setting": "[1]; BD-6 10 mg/kg oral", "value": "37.2±0.2", "unit": "°C"}, {"measurement": "Body temperature 2 hours after modeling", "setting": "[1]; BD-6 50 mg/kg oral", "value": "37.2±0.1", "unit": "°C"}, {"measurement": "Body temperature 4 hours after modeling", "setting": "[1]; BD-6 50 mg/kg oral", "value": "37.5±0.2", "unit": "°C"}, {"measurement": "Body temperature 6 hours after modeling", "setting": "[1]; BD-6 50 mg/kg oral", "value": "37.4±0.2", "unit": "°C"}, {"measurement": "Body temperature 8 hours after modeling", "setting": "[1]; BD-6 50 mg/kg oral", "value": "37.4±0.2", "unit": "°C"}, {"measurement": "Effect on body temperature (in words)", "setting": "[1]; BD-6 10 and 50 mg/kg, 2 hours after modeling, P<0.05 vs model group", "value": "can reduce the body temperature of the model rats to different degrees"}, {"measurement": "Incubation period of Grade III epilepsy vs model group (in words)", "setting": "[2]; BD-6 50 mg/kg and 200 mg/kg, PTZ model", "value": "have statistical differences compared with the model group"}, {"measurement": "Cases of deaths", "setting": "[2]; BD-6 50 mg/kg intragastric", "value": 0}, {"measurement": "Grade IV seizure rate", "setting": "[2]; BD-6 50 mg/kg intragastric", "value": 60, "unit": "%"}, {"measurement": "mortality rate", "setting": "[2]; BD-6 50 mg/kg intragastric", "value": 0, "unit": "%"}, {"measurement": "Cases of Grade IV", "setting": "[2]; BD-6 50 mg/kg intragastric", "value": 6}, {"measurement": "Grade III seizure incubation period", "setting": "[2]; BD-6 50 mg/kg intragastric", "value": "74±5^∗∗ s"}, {"measurement": "Grade IV seizure incubation period", "setting": "[2]; BD-6 50 mg/kg intragastric", "value": "440 ± 128", "unit": "s"}, {"measurement": "Cases of deaths", "setting": "[2]; BD-6 200 mg/kg intragastric", "value": 1}, {"measurement": "Grade IV seizure rate", "setting": "[2]; BD-6 200 mg/kg intragastric", "value": 90, "unit": "%"}, {"measurement": "mortality rate", "setting": "[2]; BD-6 200 mg/kg intragastric", "value": 10, "unit": "%"}, {"measurement": "Cases of Grade IV", "setting": "[2]; BD-6 200 mg/kg intragastric", "value": 9}, {"measurement": "Grade III seizure incubation period", "setting": "[2]; BD-6 200 mg/kg intragastric", "value": "69±6^∗ s"}, {"measurement": "Grade IV seizure incubation period", "setting": "[2]; BD-6 200 mg/kg intragastric", "value": "201 ± 81", "unit": "s"}, {"measurement": "Number of coughs vs solvent control (in words)", "setting": "[3]; BD-6 20 mg/kg and 50 mg/kg, P<0.05", "value": "significant improvement in the number of coughs"}, {"measurement": "Incubation period (cough)", "setting": "[3]; BD-6 20 mg/kg oral", "value": "33.3±3.3^∗ s"}, {"measurement": "Number of coughs", "setting": "[3]; BD-6 20 mg/kg oral", "value": "45.9±4.8^∗"}, {"measurement": "Cough incubation period vs solvent control (in words)", "setting": "[3]; BD-6 20 mg/kg, P<0.05", "value": "significant improvement effect in the incubation period"}, {"measurement": "Incubation period (cough)", "setting": "[3]; BD-6 50 mg/kg oral", "value": "30.6 ± 2.5", "unit": "s"}, {"measurement": "Number of coughs", "setting": "[3]; BD-6 50 mg/kg oral", "value": "49.8±3.8^∗"}]}
